This test addresses MtMscL CΔ48 C-GFP (pet15b-MtMscL CΔ(103–151)-S-TEV-GFP-6xHis) (Mycobacterium tuberculosis) (UniProt A5U127). In words: native MS.

The values below come from publication PMC6585436 (Chemistry & biology, 2015).

Regarding “MtMscL CΔ48 C-GFP (pet15b-MtMscL CΔ(103–151)-S-TEV-GFP-6xHis) (from UniProt A5U127 1-102) (domain or fragment)”, the stoichiometry N – broadly, a count of units in the complex or per binding partner – was 5.
